Numbered stars: 1 amine (or outer) side, 2 acyl side, 3 side chain; on linkers, the order of the positions; unused ones are H or OH. Square brackets hold non-standard residues; d marks the D form. Ends that are not written are not given here. * marks the point of attachment. Ethylenediamine = C(CN[*:2])N[*:1]; Palmitoyl = CCCCCCCCCCCCCCCC(=O)*; Lauroyl = CCCCCCCCCCCC(=O)*; Decanoyl = CCCCCCCCCC(=O)*; Octanoyl = CCCCCCCC(=O)*; Hexanoyl = CCCCCC(=O)*; NHBn = c1ccc(CN*)cc1; Butyryl = CCCC(=O)*; Ava = NCCCCC(=O)O; Octyl = CCCCCCCC*
B1: [N-Aminopentanoyl,Ser^3(Octyl)]-Ghrelin (3-5)-amide (peptide)
peptide: [Ava]S(Octyl)FL-NH2
modifications: N-terminus assumed
SMILES: CCCCCCCCOC[C@H](NC(=O)CCCCN)C(=O)N[C@@H](Cc1ccccc1)C(=O)N[C@@H](CC(C)C)C(N)=O
B2: [Ser^3(Octyl)]-Ghrelin (1-7)-amide (peptide)
peptide: GSS(Octyl)FLSP-NH2
modifications: N-terminus assumed
SMILES: CCCCCCCCOC[C@H](NC(=O)[C@H](CO)NC(=O)CN)C(=O)N[C@@H](Cc1ccccc1)C(=O)N[C@@H](CC(C)C)C(=O)N[C@@H](CO)C(=O)N1CCC[C@H]1C(N)=O
B3: [N-Octanoyl, Ser^3]-Ghrelin (1-9)-amide (peptide)
peptide: Octanoyl-GSSFLSPEH-NH2
SMILES: CCCCCCCC(=O)NCC(=O)N[C@@H](CO)C(=O)N[C@@H](CO)C(=O)N[C@@H](Cc1ccccc1)C(=O)N[C@@H](CC(C)C)C(=O)N[C@@H](CO)C(=O)N1CCC[C@H]1C(=O)N[C@@H](CCC(=O)O)C(=O)N[C@@H](Cc1c[nH]cn1)C(N)=O
B4: Ghrelin (1-9)-amide (peptide)
peptide: GSS(Octanoyl)FLSPEH-NH2
modifications: N-terminus assumed
SMILES: CCCCCCCC(=O)OC[C@H](NC(=O)[C@H](CO)NC(=O)CN)C(=O)N[C@@H](Cc1ccccc1)C(=O)N[C@@H](CC(C)C)C(=O)N[C@@H](CO)C(=O)N1CCC[C@H]1C(=O)N[C@@H](CCC(=O)O)C(=O)N[C@@H](Cc1c[nH]cn1)C(N)=O
B5: [Ser^2(Octanoyl), Ser^3]-Ghrelin (1-9)-amide (peptide)
peptide: GS(Octanoyl)SFLSPEH-NH2
modifications: N-terminus assumed
SMILES: CCCCCCCC(=O)OC[C@H](NC(=O)CN)C(=O)N[C@@H](CO)C(=O)N[C@@H](Cc1ccccc1)C(=O)N[C@@H](CC(C)C)C(=O)N[C@@H](CO)C(=O)N1CCC[C@H]1C(=O)N[C@@H](CCC(=O)O)C(=O)N[C@@H](Cc1c[nH]cn1)C(N)=O
B6: [N-Aminopentanoyl]-Ghrelin (3-7)-amide (peptide)
peptide: [Ava]S(Octanoyl)FLSP-NH2
modifications: N-terminus assumed
SMILES: CCCCCCCC(=O)OC[C@H](NC(=O)CCCCN)C(=O)N[C@@H](Cc1ccccc1)C(=O)N[C@@H](CC(C)C)C(=O)N[C@@H](CO)C(=O)N1CCC[C@H]1C(N)=O
B7: [Leu^2]-Ghrelin (1-7)-amide (peptide)
peptide: GLS(Octanoyl)FLSP-NH2
modifications: N-terminus assumed
SMILES: CCCCCCCC(=O)OC[C@H](NC(=O)[C@H](CC(C)C)NC(=O)CN)C(=O)N[C@@H](Cc1ccccc1)C(=O)N[C@@H](CC(C)C)C(=O)N[C@@H](CO)C(=O)N1CCC[C@H]1C(N)=O

target: T1, rat GHS-R (GHS receptor) expressed on CHO-GHSR62 cells (rat, UniProt O08725 1-364); experiment: cell-based or functional assay
T1 sequence (O08725 whole entry): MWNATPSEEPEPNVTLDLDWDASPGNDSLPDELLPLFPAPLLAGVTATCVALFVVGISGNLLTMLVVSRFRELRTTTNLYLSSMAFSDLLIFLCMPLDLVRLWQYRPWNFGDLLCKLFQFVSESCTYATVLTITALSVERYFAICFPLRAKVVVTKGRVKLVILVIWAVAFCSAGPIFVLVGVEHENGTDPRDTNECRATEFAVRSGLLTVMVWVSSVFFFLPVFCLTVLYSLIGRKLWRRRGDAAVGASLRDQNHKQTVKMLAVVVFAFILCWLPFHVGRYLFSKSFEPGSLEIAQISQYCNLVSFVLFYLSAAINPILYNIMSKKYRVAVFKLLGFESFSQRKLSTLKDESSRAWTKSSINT

Molecule | Ca-releasing activity (EC50, nM) [nM]
GSS(Octanoyl)F [Ghrelin (1-4)] | 480
GSS(Hexanoyl)FLSPEHQKAQQRKESKKPPAKLQPR [[Ser^3(Hexanoyl)]-rGhrelin] | 16
GSS(Octanoyl)FLSPEHQKAQRKESKKPPAKLQPR [rat ghrelin-27] | 2.8
GSS(Octanoyl)FLSPEHQ [Ghrelin (1-10)] | 19
GSS(Ac)FLSPEHQKAQQRKESKKPPAKLQPR [[Ser^3(Acetyl)]-rGhrelin] | 780
GSS(Butyryl)FLSPEHQKAQQRKESKKPPAKLQPR [[Ser^3(Butyryl)]-rGhrelin] | 280
GSS(Octanoyl)FLSPEHQRVQQR [hGhrelin (1-15)] | 7
KESKKPPAKLQPR (not fully specified) [Ghrelin (16-28)] | > 10000
GSS(Palmitoyl)FLSPEHQKAQQRKESKKPPAKLQPR [[Ser^3(Palmitoyl)]-rGhrelin] | 3.1
GSS(Octanoyl)FLSPEH [Ghrelin (1-9)] | 38
GSS(Octanoyl)FLSPE [Ghrelin (1-8)] | 100
GSS(Decanoyl)FLSPEHQKAQQRKESKKPPAKLQPR [[Ser^3(Decanoyl)]-rGhrelin] | 2.6
GSS(Octanoyl)FLSPEHQKAQQR [rGhrelin (1-15)] | 8.6

target: T1, rat GHS-R (GHS receptor) expressed on …; experiment: cell-based or functional assay; remark: another data set of the same source

Molecule | Ca-releasing activity EC50 [nM]
GSS(Octanoyl)F [Ghrelin (1-4)] | 480
GSS(Octanoyl)FLSPEHQ [Ghrelin (1-10)] | 19
GSS(Octanoyl)FLSPEH [Ghrelin (1-9)] | 38
GSS(Octanoyl)FLSPE [Ghrelin (1-8)] | 100

target: T1, rat GHS-R (GHS receptor) expressed on …; experiment: cell-based or functional assay; remark: another data set of the same source

Molecule | Ca-releasing activity EC50 [nM]
GSS(Octanoyl)FLSPEHQKAQRKESKKPPAKLQPR [rat ghrelin-27] | 1.5
GSS(Octanoyl)FLSPEHQRVQQR [hGhrelin (1-15)] | 7
KESKKPPAKLQPR (not fully specified) [Ghrelin (16-28)] | > 10000
GSS(Octanoyl)FLSPEHQKAQQR [rGhrelin (1-15)] | 8.6

target: T1, rat GHS-R (GHS receptor) expressed on …; experiment: cell-based or functional assay; remark: another data set of the same source

Molecule | Activity EC50 [nM]
[Ava]S(Octyl)FL-Ethylenediamine [[N-Aminopentanoyl,Ser^3(Octyl)]-Ghrelin (3-5)-aminoethylamide] | 3.5
[Ava]S(Octyl)FL-NHEt [[N-Aminopentanoyl,Ser^3(Octyl)]-Ghrelin (3-5)-ethylamide] | 22
[Ava]S(Octyl)FL-NHBn [[N-Aminopentanoyl,Ser^3(Octyl)]-Ghrelin (3-5)-benzylamide] | 98
B1 | 11
[Ava]S(Octyl)FL-NHMe [[N-Aminopentanoyl,Ser^3(Octyl)]-Ghrelin (3-5)-methylamide] | 12

target: T1, rat GHS-R (GHS receptor) expressed on …; experiment: cell-based or functional assay; remark: another data set of the same source

Molecule | Ca-releasing activity EC50 [nM]
GS[dS](Octyl)[dF]LSP-NH2 [[^DSer^3(Octyl),^DPhe^4]-Ghrelin (1-7)-amide] | > 10000
B2 | 5.8
GSS(Octyl)[dF]LSP-NH2 [[Ser^3(Octyl),^DPhe^4]-Ghrelin (1-7)-amide] | 2200
GS[dS](Octyl)FLSP-NH2 [[^DSer^3(Octyl)]-Ghrelin (1-7)-amide] | > 10000

target: T1, rat GHS-R (GHS receptor) expressed on …; experiment: cell-based or functional assay; remark: another data set of the same source

Molecule | Ca-releasing activity EC50 [nM]
B3 | > 10000
B4 | 5.4
B5 | 1100
GS(Octanoyl)S(Octanoyl)FLSPEH-NH2 [[Ser^2(Octanoyl)]-Ghrelin (1-9)-amide] | 1400

target: T1, rat GHS-R (GHS receptor) expressed on …; experiment: cell-based or functional assay; remark: another data set of the same source

Molecule | Ca-releasing activity EC50 [nM]
Ac-GSS(Octanoyl)FLSPEHQ [[N-Acetyl]-Ghrelin (1-10)] | > 10000
B6 | 3.4
B7 | 42

target: rat GHS-R (GHS receptor) expressed on CHO-GHSR62 cells (rat) (UniProt O08725); experiment: cell-based or functional assay
Sequence (O08725 whole entry): as the sequence (O08725 whole entry) above

Molecule | Activity EC50 [nM] | inhibition of the Ca-releasing activity of ghrelin [µM] | EC50 value [nM]
[N-Aminopentanoyl,Ser^3(Octyl),Lys^5]-Ghrelin (3-5)-amide (peptide) | 12 | – | –
[N-Aminopentanoyl,^DSer^3(Octyl),^DPhe^4,Lys^5]-Ghrelin (3-5)-amide (peptide) | 1600 | – | –
[D-Lys 3]-GHRP-6 (peptide) | – | 100 | –
[Aib^1,His^2,^DNal^3,^DPhe^4,Lys^5]-Ghrelin (1-5)-amide (peptide) | 2.5 | – | 2.5

target: T1, rat GHS-R (GHS receptor) expressed on …; experiment: cell-based or functional assay; remark: another data set of the same source

Molecule | Activity EC50 [nM]
GSVFLSPEHQRVQQRKESKKPPAKLQPR [[Val^3]-hGhrelin] | 1600
GSWFLSPEHQRVQQRKESKKPPAKLQPR [[Trp^3]-hGhrelin] | 31
GSIFLSPEHQRVQQRKESKKPPAKLQPR [[Ile^3]-hGhrelin] | > 10000
GSFFLSPEHQRVQQRKESKKPPAKLQPR [[Phe^3]-hGhrelin] | 2000
GSKFLSPEHQRVQQRKESKKPPAKLQPR [[Lys^3]-hGhrelin] | 120
GSLFLSPEHQRVQQRKESKKPPAKLQPR [[Leu^3]-hGhrelin] | 4400

target: T1, rat GHS-R (GHS receptor) expressed on …; experiment: cell-based or functional assay; remark: another data set of the same source

Molecule | Ca-releasing activity EC50 [nM]
GSS(Hexanoyl)FLSPEHQKAQQRKESKKPPAKLQPR [[Ser^3(Hexanoyl)]-rGhrelin] | 16
GSSFLSPEHQKAQQRKESKKPPAKLQPR [[Ser^3]-rat Ghrelin] | 3500
GSS(Lauroyl)FLSPEHQKAQQRKESKKPPAKLQPR [[Ser^3(Lauroyl)]-rGhrelin] | 2.4
GSS(Ac)FLSPEHQKAQQRKESKKPPAKLQPR [[Ser^3(Acetyl)]-rGhrelin] | 780
GSS(Butyryl)FLSPEHQKAQQRKESKKPPAKLQPR [[Ser^3(Butyryl)]-rGhrelin] | 280
GSS(Palmitoyl)FLSPEHQKAQQRKESKKPPAKLQPR [[Ser^3(Palmitoyl)]-rGhrelin] | 6.5
GSS(Decanoyl)FLSPEHQKAQQRKESKKPPAKLQPR [[Ser^3(Decanoyl)]-rGhrelin] | 1.7

target: amino-terminal antibody (anti-[C-Cys]-rat ghrelin [1-11] antigen); experiment: radioimmunoassay: inhibition of binding of radioisotope-labeled rat ghrelin to the amino-terminal antibody

Molecule | cross-reactivity [%]
human ghrelin (peptide) | 100
GSS(Hexanoyl)FLSPEHQKAQQRKESKKPPAKLQPR [[Ser^3(Hexanoyl)]-rGhrelin] | 0.3
GSS(Decanoyl)FLSPEHQKAQQRKESKKPPAKLQPR [[Ser^3(Decanoyl)]-rGhrelin] | 20
